Measured values taken from the RNAGym collection of RNA variant scans (doi:10.7554/elife.80360).

B1: HDV Ribozyme (parent)
chain: GGCCGGCAUGGUCCCAGCCUCCUCGCUGGCGCCGGCUGGGCAACAUUCCGAGGGGACCGUCCCCUCGGUAAUGGCGAAUGGGACCCA

Variants of: B1
Assay: self-cleavage, relative activity (ratio to wild type); higher = more cleavage; co-transcriptional

First: GGCCGGCACGGUCCCAGCCUCCUCGCUGGCGCCGGCUGGGCAACAUUCCGCGGGGACCGUCCCCUCGGUAAUGGCGAAUGGGACCCA [U9C A51C]
Second: GGCCGGCACGGUCCCAGCCUCCUCGCUGGCGCCGGCUGGGCAACAUUCCGAGGGGACCGUCCCCUCGGUAAUGGCGAAUGGGACCCG [U9C A87G]
The self-cleavage of the first is higher: 1.49 for the first, 1.12 for the second.

Going from GGCCGGCACGGUCCCAGCCUCCUCGCUGGCGCCGGCUGGGCAACAUUACGAGGGGACCGUCCCCUCGGUAAUGGCGAAUGGGACCCA [U9C C48A] to GGCCGGCACGGUCCCAGCCUCCUCGCUGGCGCCGGCUGGGCAACAUUCCGAGGGGACCGUCCUCUCGGUAAUGGCGAAUGGGACCCA [U9C C63U], the self-cleavage rises from 0.911 to 0.987.

Compared with GGCCGGCACGGUCCCAGCCUCCUCGCUGGCGCCGGCUGGGCAACAUUCCGAGGGGACCGUCCGCUCGGUAAUGGCGAAUGGGACCCA [U9C C63G], GGCCGGCACGGUCCCAGCCUCCUCGCUGGCGCGGGCUGGGCAACAUUCCGAGGGGACCGUCCCCUCGGUAAUGGCGAAUGGGACCCA [U9C C33G] is lower in self-cleavage: 0.831 for the first, 0.249 for the second.

Going from GGCCGGCACGGUCCCAGCCUCCUCGCUGGCGCCGGCUGGGCAACAUUCCGAGGGGACCGUCCCAUCGGUAAUGGCGAAUGGGACCCA [U9C C64A] to GGCCGGCACGGUCCCAGCCUCCUCGCUGGAGCCGGCUGGGCAACAUUCCGAGGGGACCGUCCCCUCGGUAAUGGCGAAUGGGACCCA [U9C C30A], the self-cleavage falls from 0.831 to 0.458.

Going from GGCCGGCACGGUCCCAGCCUCCUCGCUGGCGCCGGCUGGGCAAGAUUCCGAGGGGACCGUCCCCUCGGUAAUGGCGAAUGGGACCCA [U9C C44G] to GGCCGGCAAGGUCCCAGCCUCCUCGCUGGCGCCGGCUGGGCAACAUGCCGAGGGGACCGUCCCCUCGGUAAUGGCGAAUGGGACCCA [U9A U47G], the self-cleavage rises from 0.63 to 0.772.

Going from GGCCGGCACGGUCCCAGCCUCCUCGCUGGCGCCGGCUGGGCAACUUUCCGAGGGGACCGUCCCCUCGGUAAUGGCGAAUGGGACCCA [U9C A45U] to GGCCGGCACGGUCCCAGCCUCAUCGCUGGCGCCGGCUGGGCAACAUUCCGAGGGGACCGUCCCCUCGGUAAUGGCGAAUGGGACCCA [U9C C22A], the self-cleavage falls from 0.554 to 0.192.

First: GGCCGGCACGGUCCCAGCCUCCUCGCUGGCGCCGGCUGGGCAACAUUCCGAGGGGACCGUCCCCUCGGUAAUGGCGACUGGGACCCA [U9C A78C]
Second: GGCCGGCACAGUCCCAGCCUCCUCGCUGGCGCCGGCUGGGCAACAUUCCGAGGGGACCGUCCCCUCGGUAAUGGCGAAUGGGACCCA [U9C G10A]
The self-cleavage of the first is lower: 0.128 for the first, 0.985 for the second.

Going from GGCCGGCAAGGUCCCAGCCUCCUCGCUGGCGCCGGCGGGGCAACAUUCCGAGGGGACCGUCCCCUCGGUAAUGGCGAAUGGGACCCA [U9A U37G] to GGCCGGCACGGUCCCAGCCUCCUCUCUGGCGCCGGCUGGGCAACAUUCCGAGGGGACCGUCCCCUCGGUAAUGGCGAAUGGGACCCA [U9C G25U], the self-cleavage falls from 0.208 to 0.104.

Compared with GGCCGGCACGGUCCCAGCCUCCUCGCUGGCGCCGGCUGGGCAACAUUCCGAGGGGCCCGUCCCCUCGGUAAUGGCGAAUGGGACCCA [U9C A56C], GGCCGGCACGGUCCCGGCCUCCUCGCUGGCGCCGGCUGGGCAACAUUCCGAGGGGACCGUCCCCUCGGUAAUGGCGAAUGGGACCCA [U9C A16G] is higher in self-cleavage: 1.06 for the first, 1.51 for the second.

Compared with GGCCGGCACGGUCCCAGCCUCCUCGCUGGCGCCGGCUGGGCAACAUUCCGAGGGGACCGUCCCCUCGGUAAUGGCGAAUGGGACACA [U9C C85A], GGCCGGCACGGUCCCAGCAUCCUCGCUGGCGCCGGCUGGGCAACAUUCCGAGGGGACCGUCCCCUCGGUAAUGGCGAAUGGGACCCA [U9C C19A] is lower in self-cleavage: 0.969 for the first, 0.175 for the second.

First: GGCCGGCACGGUCCCAGCCUCCUCGGUGGCGCCGGCUGGGCAACAUUCCGAGGGGACCGUCCCCUCGGUAAUGGCGAAUGGGACCCA [U9C C26G]
Second: GGCCGGCACGGUCCCAGCCUCCUCGCUGGCGCCGGCUGGGCAACAUUCCGAGGGGACCGUCCCCUCGGUAAUGGCGAAUGGGACCAA [U9C C86A]
The self-cleavage of the first is lower: 0.886 for the first, 1.03 for the second.

First: GGCCGGCACGGUCCCAGCCUCCUCGCUGGCGCCGGCUGGGCAACAUUCCGAGGGGACCGUCCCCUAGGUAAUGGCGAAUGGGACCCA [U9C C66A]
Second: GGCCGGCAAGGUCCCAGCCUCCUCGCUGGCGCCGGCUGGGCAACAUUCCGAGGGGACCGUCCCCUCGGUAAUGGCGAAAGGGACCCA [U9A U79A]
The self-cleavage of the first is higher: 1.04 for the first, 0.923 for the second.

Going from GGCCGGCACGGUCCCAGCCUCCUCGCUGGCGCCGGCUGGGCUACAUUCCGAGGGGACCGUCCCCUCGGUAAUGGCGAAUGGGACCCA [U9C A42U] to GGCCGGCACGGUCUCAGCCUCCUCGCUGGCGCCGGCUGGGCAACAUUCCGAGGGGACCGUCCCCUCGGUAAUGGCGAAUGGGACCCA [U9C C14U], the self-cleavage rises from 0.767 to 1.11.

First: GGCCGGCACGGUCCCAGCCUCCUCGCUGGCGCCGGCUGGGCAACAUUCCGAGGGGACCGUCCCCUCGGUAAUGGCGUAUGGGACCCA [U9C A77U]
Second: GGCCGGCACGGUCCCAGCCUCCUCGCUGGCGCCGGCUGGGCAACAUUCCGAGGGGAUCGUCCCCUCGGUAAUGGCGAAUGGGACCCA [U9C C57U]
The self-cleavage of the first is lower: 0.867 for the first, 0.95 for the second.

First: GGCCGGCACGGUCCCAGCCUCCUCGCUGGCGCCGGCUGGGCAACAUUCCGAGGGGACCGUCCCCUCGGUUAUGGCGAAUGGGACCCA [U9C A70U]
Second: GGCCGGCACGGUCCCAGCCUCCUCGCUGGCGCCGGCUGGGCAACAUUCCGAGGGGACCGUCCCCUCGGUAAUGGCGAAUGGGACCCA [U9C]
The self-cleavage of the first is lower: 0.831 for the first, 1.04 for the second.

Compared with GGCCGGCACGGUCCCAGCCUCCUCGCUGGCGCCGGCUGGGGAACAUUCCGAGGGGACCGUCCCCUCGGUAAUGGCGAAUGGGACCCA [U9C C41G], GGCCGGCACGAUCCCAGCCUCCUCGCUGGCGCCGGCUGGGCAACAUUCCGAGGGGACCGUCCCCUCGGUAAUGGCGAAUGGGACCCA [U9C G11A] is lower in self-cleavage: 0.831 for the first, 0.0755 for the second.
